These are literature values, as cited in paper PMC3985519.

This data set addresses von Willebrand factor (Homo sapiens) (UniProt P04275).

Usually Kd stands for the constant that tells how readily two partners part at equilibrium. For the substance Factor VIII (from UniProt P00451), the Kd was 0.5 nM.
